From patent US20160122395A1, “Immunogenic compositions and a process for producing same” (THE […] INSTITUTE FOR MEDICAL RESEARCH AND PUBLIC HEALTH LTD, priority 2013, published 2016)

Key:
[1] = target: HIV-1 AD8 gp120, wild type (HIV-1 (AD8 strain)); assay: 35S pulse-chase labelling, immunoprecipitation, gp120-shedding index
[2] = target: HIV-1 AD8 gp120 T138N (HIV-1 (AD8 strain)); assay: as above
HIV-1 = details: monotherapy, HIV-1 infected individuals; cited from earlier work
HIV-1AD8 WL/KH virus = assay: Neutralization assay in TZM-bl cells, WL/KH virus; format: cell-based
HIV-1AD8 WL/KH/DE virus = assay: Neutralization assay in TZM-bl cells, WL/KH/DE virus; format: cell-based
[3] = target: HIV-1 AD8 Env ΔN139INN/K601N (HIV-1 (AD8 strain)); assay: cell-based or functional assay
[4] = target: HIV-1 AD8 envelope glycoprotein (Env), wild type (HIV-1 (AD8 strain)); assay: cell-based or functional assay

HIV-1 AD8 gp41 K601N
gp120 shedding into culture supernatant, fold with respect to WT [1]: 4.4 fold

HIV-1 AD8 gp41 K601D
improvement of gp120-gp41 association, fold with respect to K601D [2]: 2 fold | gp120 shedding into culture supernatant, fold with respect to WT [1]: 6.8 fold

Ibalizumab: αCD4bs antibody used as monotherapy of HIV-1 infected individuals
viral load (HIV-1): transient drop in viral load to nadir levels followed by a rebound in viral titre

maraviroc
neutralization compared to the WT (HIV-1AD8 WL/KH virus): to similar extents | neutralization compared to the WT (HIV-1AD8 WL/KH/DE virus): to similar extents

C34 fusion inhibitor peptide
IC50, inhibition of Env-mediated cell-cell fusion by C34 (luciferase) [3]: 100 nM | IC50, inhibition of Env-mediated cell-cell fusion by C34 (luciferase) [4]: 100 nM
